Patent publication US20260242478A1 (published 2026)
Where no end group is shown, it is not given here.

Columns and labels:
[1] = target: T1, Anti-CD28 Fab (SEQ ID NOs: 696, 697); experiment: phage binding ELISA; Fab coated wells pre-incubated with CD28 antigen as competitor, anti-M13 HRP detection
T1 construct: Biotinylated and captured on neutravidin coated plates in the phage ELISA
Protocol: (§1) Clonal phage were harvested as crude supematants and screened via standard ELISAs. […] Prior to the addition of clonal phage, wells were incubated with blocking buffer and CD28 antigen or blocking buffer alone. Without washing or aspirating, clonal phage supematants were then added to the wells and incubated for a short time. Wells were then washed followed by detection of bound phage using a horse radish conjugated anti-M13 antibody.

[2] = target: T1, Anti-CD28 Fab (SEQ ID NOs: 696, 697); experiment: phage binding ELISA; biotinylated anti-CD28 Fab on neutravidin plate, clonal phage supernatant, anti-M13 HRP detection;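 further: wells pretreated with blocking buffer, either plus or minus CD28 antigen, then given crude phage supernatant briefly without washing in between, then washed before anti-M13 HRP readout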
Protocol: as §1

[3] = target: T2, Anti-PSMA Fab (SEQ ID NOs: 19, 20); experiment: phage ELISA; PSMA Fab on plate pre-incubated with PSMA antigen as competitor, anti-M13-HRP detection;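 further: clonal phage from crude supernatants added without washing to wells preblocked with or without PSMA antigen, washed, bound phage read out by ELISA with HRP-linked anti-M13 antibody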
T2 construct: Biotinylated and captured on neutravidin coated plates in the phage ELISA; also called 006 PSMA Fab
Protocol: (§2) Clonal phage were harvested as crude supernatants and screened via standard ELISAs. […] Prior to the addition of clonal phage. wells were incubated with blocking buffer and PSMA antigen or blocking buffer alone. Without washing or aspirating, clonal phage supernatants were then added to the wells and incubated for a short time. Wells were then washed followed by detection of bound phage using a horse radish conjugated anti-M13 antibody.

[4] = target: T2, Anti-PSMA Fab (SEQ ID NOs: 19, 20); experiment: phage ELISA; biotinylated PSMA Fab on neutravidin plate, clonal phage supernatant, anti-M13-HRP detection;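 further: wells were preincubated with blocking buffer containing PSMA antigen or with blocking buffer only, then phage supernatant was added without washing for a brief incubation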
Protocol: as §2

[5] = target: T3, Anti-PSMA Fab (SEQ ID NOs: 19, 20); experiment: phage ELISA; biotinylated PSMA Fab on neutravidin plate, bound phage detected with anti-M13-HRP;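 further: crude clonal phage supernatants added, without a wash, to wells pretreated with PSMA antigen in blocking buffer or with blocking buffer only, then briefly incubated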
T3 construct: Biotinylated and captured on neutravidin coated plates in the phage ELISA; also called 006 PSMA Fab
Protocol: as §2

[6] = target: T3, Anti-PSMA Fab (SEQ ID NOs: 19, 20); experiment: phage ELISA; PSMA Fab on plate pre-incubated with PSMA antigen as competitor, anti-M13-HRP detection; remark: listed apart in the source;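 further: clonal phage from crude supernatants added without washing to wells preblocked with or without PSMA antigen, washed, bound phage read out by ELISA with HRP-linked anti-M13 antibody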
Protocol: as §2

[7] = target: T4, anti-CD28 scFv (VH - linker 1 - VL) (biotinylated (site not given)); experiment: phage ELISA as above; wells pre-incubated with soluble CD28 as competitor;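 further: crude clonal phage supernatants tested, with bound phage detected by HRP-conjugated anti-M13 antibody, and reference wells given blocking buffer without CD28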
T4 construct: Biotinylated scFv captured on neutravidin coated plates in the panning ELISA
T4 sequence (scFv, as listed by the source): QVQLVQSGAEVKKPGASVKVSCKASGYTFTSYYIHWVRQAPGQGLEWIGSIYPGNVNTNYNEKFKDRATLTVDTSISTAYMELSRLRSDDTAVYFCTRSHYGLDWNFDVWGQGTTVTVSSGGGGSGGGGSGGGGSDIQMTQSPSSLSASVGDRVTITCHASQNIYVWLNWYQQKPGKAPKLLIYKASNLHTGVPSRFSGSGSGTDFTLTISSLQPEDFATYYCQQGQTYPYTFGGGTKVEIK

[8] = target: T4, anti-CD28 scFv (VH - linker 1 - VL); experiment: phage ELISA; biotinylated anti-CD28 scFv on neutravidin plate, clonal phage supernatant, anti-M13 HRP
Protocol: Clonal phage were harvested as crude supernatants and screened via standard enzyme linked immunosorbent assays (ELISAs). […] Prior to the addition of clonal phage, wells were incubated with blocking buffer and CD28 soluble protein or blocking buffer alone. Without washing or aspirating, clonal phage supernatants were then added to the wells and incubated for a short time. Wells were then washed followed by detection of bound phage using a horse radish peroxidase conjugated anti-M13 antibody.

T1 sequence (VH, as listed by the source, chain 1 of 2): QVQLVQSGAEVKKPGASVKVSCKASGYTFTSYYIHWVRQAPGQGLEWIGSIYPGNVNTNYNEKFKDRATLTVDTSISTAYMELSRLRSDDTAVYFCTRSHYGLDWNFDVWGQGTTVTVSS
T1 sequence (VL, as listed by the source, chain 2 of 2): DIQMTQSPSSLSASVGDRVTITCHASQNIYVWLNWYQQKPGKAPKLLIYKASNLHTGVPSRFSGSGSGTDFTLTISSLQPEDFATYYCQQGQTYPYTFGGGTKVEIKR

B1: Phage-1338 (peptide)
peptide: TCSAGATYTWPKCF
B1 was tested. Which “Anti-CD28 Fab signal in the presence of CD28” value (“Anti-CD28 Fab signal” for short) [1] did it give?
The value was 0.06.

And the “Anti-CD28 Fab (SEQ ID NOs: 696, 697) signal” value [2]?
Its value is 1.87.

B2: Phage-1993 (peptide)
peptide: EVKWCTPPWMCMFD
notes: tested as crude phage supernatant
Which results are given for B2?
Phage binding ELISA, Anti-PSMA Fab signal in the presence of PSMA [3]: 0.073; Phage binding ELISA, Anti-PSMA Fab signal [4]: 1.86

B3: Phage-1992 (peptide)
peptide: PVKWCIPDWMCAYL
modifications: cysteine pairing not given here; also: displayed as fusion to phage pIII
notes: as for B2
B3 was tested. Which “Phage binding ELISA, Anti-PSMA Fab signal in the presence of PSMA” value (from here on “Phage binding ELISA … of PSMA”) [3] did it give?
Its value is 0.115.

What about the “Phage binding ELISA, Anti-PSMA Fab signal” value [4] of the same binder?
Its value is 1.86.

B4: Phage-1990 (peptide)
peptide: LMKWCIPEWMCVDS
notes: as for B2
What does the source list for B4?
Phage binding ELISA, Anti-PSMA Fab signal in the presence of PSMA [3]: 0.0631; Phage binding ELISA, Anti-PSMA Fab signal [4]: 1.87

B5: Phage-1984 (peptide)
peptide: VVKMCRPAWMCDLV
notes: as for B2
How did the “Phage binding ELISA … of PSMA” value [3] turn out when B5 was run?
The value was 0.0833.

What about the “Phage binding ELISA, Anti-PSMA Fab signal” value [4] of the same binder?
Its value is 1.88.

B6: Phage-475 (peptide)
peptide: YCAGHTEEHYVKCM
Which “Anti-CD28 Fab signal” value [1] does the source give for B6 here?
Its value is 0.07.

What about the “Anti-CD28 Fab (SEQ ID NOs: 696, 697) signal” value [2] of the same binder?
The value was 0.62.

B7: Phage-1996 (peptide)
peptide: GSNWCKPAWMCEIM
notes: as for B2
With B7 as the binder, how does the “Phage binding ELISA … of PSMA” value [3] read?
The value was 0.0723.

And the “Phage binding ELISA, Anti-PSMA Fab signal” value [4]?
Its value is 1.86.

B8: Phage-1341 (peptide)
peptide: LCAAGATYPWPLCL
With B8 as the binder, how does the “Anti-CD28 Fab signal” value [1] read?
Its value is 0.07.

And the “Anti-CD28 Fab (SEQ ID NOs: 696, 697) signal” value [2]?
Its value is 2.39.

B9: Phage-1344 (peptide)
peptide: LCAAGATYPWPTCL
Which “Anti-CD28 Fab signal” value [1] does the source give for B9 here?
Its value is 0.06.

And the “Anti-CD28 Fab (SEQ ID NOs: 696, 697) signal” value [2]?
Its value is 1.71.

B10: Phage-1339 (peptide)
peptide: TCAAGATWSWPACF
For B10, which “Anti-CD28 Fab signal” value [1] is on record?
Its value is 0.07.

What about the “Anti-CD28 Fab (SEQ ID NOs: 696, 697) signal” value [2] of the same binder?
Its value is 2.23.

B11: Phage-474 (peptide)
peptide: YCAGHMPQYEVKCL
With B11 as the binder, how does the “Anti-CD28 Fab signal” value [1] read?
Its value is 0.06.

What about the “Anti-CD28 Fab (SEQ ID NOs: 696, 697) signal” value [2] of the same binder?
The value was 0.22.

B12: Phage-1995 (peptide)
peptide: MGKWCIPPWMCVVD
notes: as for B2
Which “Phage binding ELISA … of PSMA” value [3] does the source give for B12 here?
Its value is 0.123.

And the “Phage binding ELISA, Anti-PSMA Fab signal” value [4]?
Its value is 1.86.

B13: Phage-1337 (peptide)
peptide: TCAAGAAWPWPQCL
With B13 as the binder, how does the “Anti-CD28 Fab signal” value [1] read?
Its value is 0.08.

And the “Anti-CD28 Fab (SEQ ID NOs: 696, 697) signal” value [2]?
The value was 2.23.

B14: Phage-473 (peptide)
peptide: YCAGMSTIQLWLKC
For B14, which “Anti-CD28 Fab signal” value [1] is on record?
The value was 0.09.

What about the “Anti-CD28 Fab (SEQ ID NOs: 696, 697) signal” value [2] of the same binder?
Its value is 2.16.

B15: Phage-1991 (peptide)
peptide: LVKWCTPSWMCINL
notes: as for B2
For B15, which “Phage binding ELISA … of PSMA” value [3] is on record?
The value was 0.0883.

And the “Phage binding ELISA, Anti-PSMA Fab signal” value [4]?
Its value is 1.87.

B16: Phage-1989 (peptide)
peptide: EPKLCTPTWMCIGF
notes: as for B2
For B16, which “Phage binding ELISA … of PSMA” value [3] is on record?
Its value is 0.118.

What about the “Phage binding ELISA, Anti-PSMA Fab signal” value [4] of the same binder?
Its value is 1.87.

B17: Phage-1340 (peptide)
peptide: TCAAGAAWGWPLCF
B17 was tested. Which “Anti-CD28 Fab signal” value [1] did it give?
The value was 0.07.

What about the “Anti-CD28 Fab (SEQ ID NOs: 696, 697) signal” value [2] of the same binder?
Its value is 2.3.

B18: Phage-1987 (peptide)
peptide: VEKWCTPPWMCAGW
modifications: cysteine pairing not given here; also: displayed as fusion to phage pIII
notes: as for B2
With B18 as the binder, how does the “Phage binding ELISA … of PSMA” value [3] read?
Its value is 0.0659.

And the “Phage binding ELISA, Anti-PSMA Fab signal” value [4]?
Its value is 1.87.

B19: Phage-1983 (peptide)
peptide: IFEWCVPAWMCESR
notes: as for B2
Which “Phage binding ELISA … of PSMA” value [3] does the source give for B19 here?
The value was 0.104.

And the “Phage binding ELISA, Anti-PSMA Fab signal” value [4]?
The value was 1.88.

B20: Phage-1985 (peptide)
peptide: LENWCIPRWMCHGF
notes: as for B2
B20 was tested. Which “Phage binding ELISA … of PSMA” value [3] did it give?
The value was 0.152.

And the “Phage binding ELISA, Anti-PSMA Fab signal” value [4]?
The value was 1.88.

B21: Phage-2206 (peptide)
peptide: LEKWCIPAWMCAVL
modifications: cysteine pairing not given here; also: fused to pIII of bacteriophage
notes: Tested as clonal phage supernatant, with the peptide fused to pIII of the bacteriophage
With B21 as the binder, how does the “Phage binding ELISA, Anti-PSMA Fab signal” value [5] read?
Its value is 1.61.

What about the “Phage binding ELISA … of PSMA” value [6] of the same binder?
Its value is 0.078.

B22: Phage-1343 (peptide)
peptide: TCSAGAAYSWPACF
What does the source list for B22?
Anti-CD28 Fab signal in the presence of CD28 [1]: 0.15; Anti-CD28 Fab (SEQ ID NOs: 696, 697) signal [2]: 1.89

B23: Phage-1335 (peptide)
peptide: LCAAGASWPWPVCL
With B23 as the binder, how does the “Anti-CD28 Fab signal” value [1] read?
Its value is 0.08.

And the “Anti-CD28 Fab (SEQ ID NOs: 696, 697) signal” value [2]?
Its value is 2.16.

B24: Phage-1336 (peptide)
peptide: TCSAGASYPWPLCL
Which results are given for B24?
Anti-CD28 Fab signal in the presence of CD28 [1]: 0.06; Anti-CD28 Fab (SEQ ID NOs: 696, 697) signal [2]: 2.38

B25: Phage-1342 (peptide)
peptide: TCSAGAAYPWPLCL
Which “Anti-CD28 Fab signal” value [1] does the source give for B25 here?
Its value is 0.08.

What about the “Anti-CD28 Fab (SEQ ID NOs: 696, 697) signal” value [2] of the same binder?
Its value is 2.36.

B26: Phage-1986 (peptide)
peptide: YEKWCTPPWMCEML
notes: as for B2
With B26 as the binder, how does the “Phage binding ELISA … of PSMA” value [3] read?
Its value is 0.0833.

And the “Phage binding ELISA, Anti-PSMA Fab signal” value [4]?
The value was 1.88.

B27: Phage-477 (peptide)
peptide: YCAGHSHEYLAKCE
notes: also called YCAGHSHEYLAKCE
For B27, which “Anti-CD28 Fab signal” value [1] is on record?
The value was 0.06.

And the “Anti-CD28 Fab (SEQ ID NOs: 696, 697) signal” value [2]?
The value was 0.86.

B28: Phage-1981 (peptide)
peptide: PPILCIPQWMCSPT
modifications: cysteine pairing not given here; also: displayed as fusion to phage pIII
What does the source list for B28?
Phage binding ELISA, Anti-PSMA Fab signal in the presence of PSMA [3]: 0.0785; Phage binding ELISA, Anti-PSMA Fab signal [4]: 1.88

B29: Phage-1994 (peptide)
peptide: FDKWCIPTWMCELV
notes: as for B2
How did the “Phage binding ELISA … of PSMA” value [3] turn out when B29 was run?
Its value is 0.145.

And the “Phage binding ELISA, Anti-PSMA Fab signal” value [4]?
Its value is 1.86.

B30: Phage-1334 (peptide)
peptide: TCSAGATWPWPICL
Which “Anti-CD28 Fab signal” value [1] does the source give for B30 here?
The value was 0.07.

What about the “Anti-CD28 Fab (SEQ ID NOs: 696, 697) signal” value [2] of the same binder?
The value was 2.

B31: Phage-1988 (peptide)
peptide: LDNWCRPLWMCTGF
notes: as for B2
How did the “Phage binding ELISA … of PSMA” value [3] turn out when B31 was run?
The value was 0.0836.

What about the “Phage binding ELISA, Anti-PSMA Fab signal” value [4] of the same binder?
Its value is 1.87.

B32: Phage-116 (peptide)
peptide: MDWCPRDLWYACFA
modifications: cysteine pairing not given here; also: phage-displayed pIII fusion, pIII and linker not given here
B32 was tested. Which “CD28 scFv signal in presence of CD28” value [7] did it give?
The value was 0.242.

And the “CD28 scFv signal” value [8]?
Its value is 2.47.

B33: Phage-1982 (peptide)
peptide: VGMLCKPSWMCDWL
notes: as for B2
B33 was tested. Which “Phage binding ELISA … of PSMA” value [3] did it give?
Its value is 0.0813.

And the “Phage binding ELISA, Anti-PSMA Fab signal” value [4]?
Its value is 1.88.

B34: Phage-476 (peptide)
peptide: YCMGHSHEHIWKCL
Which “Anti-CD28 Fab signal” value [1] does the source give for B34 here?
Its value is 0.07.

And the “Anti-CD28 Fab (SEQ ID NOs: 696, 697) signal” value [2]?
Its value is 0.87.
